Measured values published in patent publication US20200157542, “Bispecific Aptamer for Treating Cancer” (Augusta University Research Institute, Inc., published 2020).

Experiments:
[1] = target: human serum albumin (HSA) (human, UniProt P02768 P02768:25-609); assay: ELONA; immobilized HSA control, no positive signal; details: label: 3'-Cy5 on EpCAM strand for flow cytometry; two aptamers joined by 23 bp dsRNA adaptor with 2-3 unpaired base linkers
EpCAM = target: T1, EpCAM (human, UniProt P16422 P16422:24-265); assay: ELONA; bridging of 1 uM free EpCAM to plate-immobilized CD44; simple mixture of the two aptamers gave background only; details: tags: Thermo Fisher Scientific; label: 3'-Cy5 on EpCAM strand for flow cytometry; two aptamers joined by 23 bp dsRNA adaptor with 2-3 unpaired base linkers
T1 sequence: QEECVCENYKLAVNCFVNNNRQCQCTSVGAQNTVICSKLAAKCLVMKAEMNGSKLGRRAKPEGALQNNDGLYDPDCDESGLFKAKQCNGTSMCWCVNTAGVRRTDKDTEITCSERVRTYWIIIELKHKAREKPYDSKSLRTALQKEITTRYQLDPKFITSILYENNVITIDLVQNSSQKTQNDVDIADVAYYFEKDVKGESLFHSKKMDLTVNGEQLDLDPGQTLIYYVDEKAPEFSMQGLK
Protocol: Serially diluted recombinant human CD44 protein (0-500 nM) was loaded into 96-well microtiter plates at 50 μg/well in triplicates and incubated overnight at 4° C. Plates were further blocked with 5% BSA/sperm DNA (500 μg/ml)/yeast tRNA (500 μg/ml)/0.05% Tween-20 in PBS/T buffer overnight. CD44-EpCAM conjugates or simply mixed CD44 and EpCAM aptamers were incubated with 1 μM recombinant human EpCAM for 4 h at room temperature. For simply mixed CD44 and EpCAM, prior putting CD44 and EpCAM aptamers together, CD44 aptamer was blocked with ssDNA (5′-[…]-3′) (SEQ ID NO: 11). […] Detection of HRP was performed by incubating with 100 µL/well soluble Turbo TMB-ELISA substrate for 5 min, then reaction was quenched with 100 μl/well Stop solution and the absorbance at 450 nm was measured using TECAN Infinite M 200 plate reader.
The binding of bispecific CD44-EpCAM aptamer was examined by ELISA (FIG. 1B). […] As expected (FIG. 1C), CD44-EpCAM bispecific aptamers successfully linked to plate-immobilized CD44 protein and free EpCAM proteins, yielding CD44 protein concentration-dependent positive signals, whereas only the background signal was detected in a control experiment with a simple mixture of CD44 aptamer and EpCAM aptamer. […]

Chain of human serum albumin (HSA) (P02768 25-609, one chain of several): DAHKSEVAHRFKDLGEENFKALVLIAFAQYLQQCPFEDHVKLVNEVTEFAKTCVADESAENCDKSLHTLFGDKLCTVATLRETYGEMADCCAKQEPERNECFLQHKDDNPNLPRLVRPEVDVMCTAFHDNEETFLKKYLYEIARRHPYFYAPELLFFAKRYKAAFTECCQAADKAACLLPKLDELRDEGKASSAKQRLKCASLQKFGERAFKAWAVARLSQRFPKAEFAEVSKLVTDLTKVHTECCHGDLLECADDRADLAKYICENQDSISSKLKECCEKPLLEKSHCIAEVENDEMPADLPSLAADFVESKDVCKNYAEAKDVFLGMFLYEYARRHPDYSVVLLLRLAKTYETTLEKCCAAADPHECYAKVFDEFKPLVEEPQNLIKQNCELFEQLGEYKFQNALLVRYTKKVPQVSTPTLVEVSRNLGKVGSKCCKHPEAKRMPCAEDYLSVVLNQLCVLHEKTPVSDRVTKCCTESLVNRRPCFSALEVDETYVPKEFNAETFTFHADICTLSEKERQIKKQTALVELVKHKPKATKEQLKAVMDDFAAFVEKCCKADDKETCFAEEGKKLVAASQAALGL

B1: CD44-EpCAM bispecific aptamer (ssRNA)
RNA 1: GGGAUGGAUCCAAGCUUACUGGCAUCUGGAUUUGCGCGUGCCAGAAUAAAGAGUAUAACGUGUGAAUGGGAAGCUUCGAUAGGAAUUCGGAAAAGCUUGUUCAGGAGAUGAAAUU
RNA 2: GCGACUGGUUACCCGGUCGUAAAAUUUCAUCUCCUGAACAAGCUU
modifications: RNA (U for T in printed DNA template), 2'-F pyrimidines throughout
[1]
  binding result: no binding
EpCAM
  binding result: binds
